Key:
[1] = molecular target: rS1 domain 1 (S1 D1), P0AG67
[2] = molecular target: rS1 domain 2 (S1 D2), P0AG67
[3] = molecular target: rS1 domain 2 R139A (S1 D2 R139A), P0AG67
[4] = molecular target: rS1 domain 2 R139K (S1 D2 R139K), P0AG67
[5] = molecular target: rS1 domain 3 (S1 D3), P0AG67
[6] = molecular target: rS1 domain 4 (S1 D4), P0AG67
[7] = molecular target: rS1 domain 5 (S1 D5), P0AG67
[8] = molecular target: rS1 domain 6 (S1 D6), P0AG67
[9] = molecular target: ribosomal protein S1 (rS1), P0AG67

Sequence of BSA, P02769 (P02769 25-607): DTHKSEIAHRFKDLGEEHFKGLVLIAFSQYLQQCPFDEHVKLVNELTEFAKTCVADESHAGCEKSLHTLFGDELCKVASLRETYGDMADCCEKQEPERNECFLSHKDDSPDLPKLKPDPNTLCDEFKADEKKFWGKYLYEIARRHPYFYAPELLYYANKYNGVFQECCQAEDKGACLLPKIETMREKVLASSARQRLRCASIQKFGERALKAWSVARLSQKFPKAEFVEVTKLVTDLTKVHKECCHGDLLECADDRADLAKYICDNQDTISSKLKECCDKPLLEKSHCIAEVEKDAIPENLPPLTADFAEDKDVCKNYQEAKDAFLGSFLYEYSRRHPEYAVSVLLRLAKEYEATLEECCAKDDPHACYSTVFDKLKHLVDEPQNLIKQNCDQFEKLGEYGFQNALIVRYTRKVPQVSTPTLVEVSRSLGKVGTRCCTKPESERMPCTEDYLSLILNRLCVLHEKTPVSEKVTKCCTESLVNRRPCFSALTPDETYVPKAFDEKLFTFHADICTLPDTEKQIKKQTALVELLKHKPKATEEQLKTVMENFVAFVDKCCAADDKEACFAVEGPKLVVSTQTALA

B1: ADP-ribosyltransferase ModB from Escherichia virus T4 (cloned ModB with His6 tag) (protein)
chain: MGIINLADVEQLSIKAESVDFQYDMYKKVCEKFTDFEQSVLWQCMEAKKNEALHKHLNEIIKKHLTKSPYQLYRGISKSTKELIKDLQVGEVFSTNRVDSFTTSLHTACSFSYAEYFTETILRLKTDKAFNYSDHISDIILSSPNTEFKYTYEDTDGLDSERTDNLMMIVREQEWMIPIGKYKITSISKEKLHDSFGTFKVYDIEVVELVPRGSLEHHHHHH
B1 was tested, and the “in vitro RNAylation and ADP-ribosylation (SDS-PAGE)” value (BSA, P02769) was “control proteins without S1 domain (BSA, NudC inactive quadruple mutant) were not”, the “RNAylation assay with single S1 domains” value [1] was “rS1 D1, D3, D4 and D5 domains were modified to a much lesser extent” and the “RNAylation assay with single S1 domains” value [2] was “For rS1 domains D2 and D6 high RNAylation signals were determined”. For the same protein, the “RNAylation with 5'-NXD-10mer-Cy5 RNAs (Tricine gel, band shift)” value [2] was “rS1 DII was RNAylated in the presence of 5'-NXD-RNAs by ModB”, the “ADP-ribosylation level of D2” value [3] was “the ADP-ribosylation level of D2 is dramatically reduced if R139 is substituted by alanine or lysine” and the “ADP-ribosylation level of D2” value [4] was “the ADP-ribosylation level of D2 is dramatically reduced if R139 is substituted by alanine or lysine”. For the same protein, the “RNAylation assay with single S1 domains” value [5] was “rS1 D1, D3, D4 and D5 domains were modified to a much lesser extent”, the “RNAylation assay with single S1 domains” value [6] was “rS1 D1, D3, D4 and D5 domains were modified to a much lesser extent” and the “RNAylation assay with single S1 domains” value [7] was “rS1 D1, D3, D4 and D5 domains were modified to a much lesser extent”. The “RNAylation assay with single S1 domains” value [8] was “For rS1 domains D2 and D6 high RNAylation signals were determined” and the “RNAylation of rS1 with 32P-labelled 5'-NAD-RNA 8mer (SDS-PAGE, autoradiography)” value [9] was “ModB rapidly RNAylated its known target, ribosomal protein S1 (rS1) without detectable self-RNAylation”.
